B1: zinc porphyrin-peptide conjugate Zn-Ph-Pep (peptide)
peptide: Ac-GKPGKLVFF-NH2
modifications: not fully specified (residue 2); also: porphyrin as Zn(II) complex
notes: designed N-terminal stretch of Ac-GK(N3)PGKLVFF-NH2; the K is the azidolysine that carries the porphyrin; hydrophobic core Aβ16-20 (KLVFF) of amyloid-β; numbers count on: the Aβ peptide; MALDI-TOF (M+H)+ 1939.43; calcd. for C103H119ZnN22O13 1938.60; Structure drawn in Scheme 1 and Scheme 3; source: synthetic: Ph-Pep metalated with Zn(CH3COO)2, purified by RP-HPLC
B2: copper porphyrin-peptide conjugate Cu-Ph-Pep (peptide)
peptide: Ac-GKPGKLVFF-NH2
modifications: not fully specified (residue 2); also: porphyrin as Cu(II) complex
notes: designed N-terminal stretch of Ac-GK(N3)PGKLVFF-NH2; the K is the azidolysine that carries the porphyrin; hydrophobic core Aβ16-20 (KLVFF) of amyloid-β; numbers count on: the Aβ peptide; MALDI-TOF (M+H)+ 1937.73; calcd. for C103H118CuN22O13 1936.77; Structure drawn in Scheme 1; source: synthetic peptide (MW-SPPS), clicked in solution to Cu-Ph-Pra-OMe (CuAAC), purified by preparative HPLC
B3: unmetalated porphyrin-peptide conjugate Ph-Pep (peptide)
peptide: Ac-GKPGKLVFF-NH2
modifications: not fully specified (residue 2)
notes: designed N-terminal stretch of Ac-GK(N3)PGKLVFF-NH2; the K is the azidolysine that carries the porphyrin; hydrophobic core Aβ16-20 (KLVFF) of amyloid-β; numbers count on: the Aβ peptide; MALDI-TOF (M+H)+ 1876.12; calcd. for C103H121N22O13 1875.24; Structure drawn in Scheme 1 and Scheme 3; source: synthetic peptide (MW-SPPS), clicked on resin to Pra-OMe (CuAAC), porphyrin coupled on resin, cleaved …

target: T1, Amyloid-β 42 peptide (UniProt P05067 672-713); experiment: grating-coupled interferometry (GCI); Creoptix WAVE; Aβ42 immobilised on a 4PCH chip (1910±40 pg/mm^2); analytes injected as single-cycle 1:2 dilution series in PBS, 0.005 % Tween 20, 1 % DMSO, 0.2 mg/ml BSA; 25 °C; 100 μl/min; mass transport binding model with bulk correction; conditions: both partners purified
T1 construct: Amyloid-β peptide 1-42 (Aβ42), the cut product of the amyloid precursor protein; numbers count on: the Aβ peptide; For GCI it was immobilised on a polycarboxylate chip from Na acetate pH 4.5; also called Aβ42; Aβ
T1 sequence (P05067 672-713): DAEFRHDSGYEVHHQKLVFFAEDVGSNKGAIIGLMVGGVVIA

Binder	Kd [µM]	koff [s⁻¹]	kon [M⁻¹ s⁻¹]
B1	46 ± 6	0.002	110
B2	44 ± 6	0.0931	2100
B3	60 ± 1	0.0819	1370
